First the molecules themselves.
B1: Compound No. 52 (peptide)
peptide: FANPHLXWSWXXRCG
modifications: N-terminal chloroacetyl (ClAc) on residue 1 cyclized as thioether with Cys14; N-methyl-Ala (mAla) at 2; Dab (2,4-diaminobutyric acid, written X) at 7; N-methyl-norleucine (mNle, written X) at 11 and 12; C-terminal amide (NH2)
notes: macrocyclic peptide cyclized via the ClAc moiety with the downstream cysteine
B2: Compound No. 60 (peptide)
peptide: {CH2CO}-F[NMeA]NPHL[Sar]WAW[NMeNle][NMeNle]ACG-NH2
modifications: thioether N-14
SMILES: CCCC[C@H]1C(=O)N(C)[C@@H](CCCC)C(=O)N[C@@H](C)C(=O)N[C@H](C(=O)NCC(N)=O)CSCC(=O)N[C@@H](Cc2ccccc2)C(=O)N(C)[C@@H](C)C(=O)N[C@@H](CC(N)=O)C(=O)N2CCC[C@H]2C(=O)N[C@@H](Cc2c[nH]cn2)C(=O)N[C@@H](CC(C)C)C(=O)N(C)CC(=O)N[C@@H](Cc2c[nH]c3ccccc23)C(=O)N[C@@H](C)C(=O)N[C@@H](Cc2c[nH]c3ccccc23)C(=O)N1C
notes: as for B1
B3: Compound No. 56 (peptide)
peptide: {CH2CO}-F[NMeA]NPHL[NMeS]WSW[NMeNle][NMeNle]RCG-NH2
modifications: thioether N-14
SMILES: CCCC[C@H]1C(=O)N(C)[C@@H](CCCC)C(=O)N[C@@H](CCCNC(=N)N)C(=O)N[C@H](C(=O)NCC(N)=O)CSCC(=O)N[C@@H](Cc2ccccc2)C(=O)N(C)[C@@H](C)C(=O)N[C@@H](CC(N)=O)C(=O)N2CCC[C@H]2C(=O)N[C@@H](Cc2c[nH]cn2)C(=O)N[C@@H](CC(C)C)C(=O)N(C)[C@@H](CO)C(=O)N[C@@H](Cc2c[nH]c3ccccc23)C(=O)N[C@@H](CO)C(=O)N[C@@H](Cc2c[nH]c3ccccc23)C(=O)N1C
notes: as for B1
B4: Compound No. 62 (peptide)
peptide: {CH2CO}-F[NMeA]NPHL[Sar]WSI[NMeNle][NMeNle]RCG-NH2
modifications: thioether N-14
SMILES: CCCC[C@H]1C(=O)N(C)[C@@H](CCCC)C(=O)N[C@@H](CCCNC(=N)N)C(=O)N[C@H](C(=O)NCC(N)=O)CSCC(=O)N[C@@H](Cc2ccccc2)C(=O)N(C)[C@@H](C)C(=O)N[C@@H](CC(N)=O)C(=O)N2CCC[C@H]2C(=O)N[C@@H](Cc2c[nH]cn2)C(=O)N[C@@H](CC(C)C)C(=O)N(C)CC(=O)N[C@@H](Cc2c[nH]c3ccccc23)C(=O)N[C@@H](CO)C(=O)N[C@@H]([C@@H](C)CC)C(=O)N1C
notes: as for B1
B5: Compound No. 61 (peptide)
peptide: {CH2CO}-F[NMeA]NPHL[Sar]WSM[NMeNle][NMeNle]RCG-NH2
modifications: thioether N-14
SMILES: CCCC[C@H]1C(=O)N(C)[C@@H](CCCC)C(=O)N[C@@H](CCCNC(=N)N)C(=O)N[C@H](C(=O)NCC(N)=O)CSCC(=O)N[C@@H](Cc2ccccc2)C(=O)N(C)[C@@H](C)C(=O)N[C@@H](CC(N)=O)C(=O)N2CCC[C@H]2C(=O)N[C@@H](Cc2c[nH]cn2)C(=O)N[C@@H](CC(C)C)C(=O)N(C)CC(=O)N[C@@H](Cc2c[nH]c3ccccc23)C(=O)N[C@@H](CO)C(=O)N[C@@H](CCSC)C(=O)N1C
notes: as for B1
B6: Compound No. 63 (peptide)
peptide: {CH2CO}-F[NMeA]NPHL[Sar]WSL[NMeNle][NMeNle]RCG-NH2
modifications: thioether N-14
SMILES: CCCC[C@H]1C(=O)N(C)[C@@H](CCCC)C(=O)N[C@@H](CCCNC(=N)N)C(=O)N[C@H](C(=O)NCC(N)=O)CSCC(=O)N[C@@H](Cc2ccccc2)C(=O)N(C)[C@@H](C)C(=O)N[C@@H](CC(N)=O)C(=O)N2CCC[C@H]2C(=O)N[C@@H](Cc2c[nH]cn2)C(=O)N[C@@H](CC(C)C)C(=O)N(C)CC(=O)N[C@@H](Cc2c[nH]c3ccccc23)C(=O)N[C@@H](CO)C(=O)N[C@@H](CC(C)C)C(=O)N1C
notes: as for B1
B7: Compound No. 66 (peptide)
peptide: FANPHLGWSWSXRCG
HELM: PEPTIDE1{[O=C(C[*:3])[*:2]].F.[meA].N.P.H.L.[Sar].W.S.W.[meS].[CCCC[C@@H](C(=O)[*:2])N(C)[*:1]].R.C.G.[am]}$PEPTIDE1,PEPTIDE1,1:R3-15:R3$$$V2.0
SMILES: CCCC[C@H]1C(=O)N[C@@H](CCCNC(=N)N)C(=O)N[C@H](C(=O)NCC(N)=O)CSCC(=O)N[C@@H](Cc2ccccc2)C(=O)N(C)[C@@H](C)C(=O)N[C@@H](CC(N)=O)C(=O)N2CCC[C@H]2C(=O)N[C@@H](Cc2c[nH]cn2)C(=O)N[C@@H](CC(C)C)C(=O)N(C)CC(=O)N[C@@H](Cc2c[nH]c3ccccc23)C(=O)N[C@@H](CO)C(=O)N[C@@H](Cc2c[nH]c3ccccc23)C(=O)N(C)[C@@H](CO)C(=O)N1C
notes: as for B1
B8: Compound No. 65 (peptide)
peptide: FANPHLGWSWLXRCG
HELM: PEPTIDE1{[O=C(C[*:3])[*:2]].F.[meA].N.P.H.L.[Sar].W.S.W.[meL].[CCCC[C@@H](C(=O)[*:2])N(C)[*:1]].R.C.G.[am]}$PEPTIDE1,PEPTIDE1,1:R3-15:R3$$$V2.0
SMILES: CCCC[C@H]1C(=O)N[C@@H](CCCNC(=N)N)C(=O)N[C@H](C(=O)NCC(N)=O)CSCC(=O)N[C@@H](Cc2ccccc2)C(=O)N(C)[C@@H](C)C(=O)N[C@@H](CC(N)=O)C(=O)N2CCC[C@H]2C(=O)N[C@@H](Cc2c[nH]cn2)C(=O)N[C@@H](CC(C)C)C(=O)N(C)CC(=O)N[C@@H](Cc2c[nH]c3ccccc23)C(=O)N[C@@H](CO)C(=O)N[C@@H](Cc2c[nH]c3ccccc23)C(=O)N(C)[C@@H](CC(C)C)C(=O)N1C
notes: as for B1
B9: Compound No. 69 (peptide)
peptide: FANPHLGWSWFXRCG
HELM: PEPTIDE1{[O=C(C[*:3])[*:2]].F.[meA].N.P.H.L.[Sar].W.S.W.F.[CCCC[C@@H](C(=O)[*:2])N(C)[*:1]].R.C.G.[am]}$PEPTIDE1,PEPTIDE1,1:R3-15:R3$$$V2.0
SMILES: CCCC[C@H]1C(=O)N[C@@H](CCCNC(=N)N)C(=O)N[C@H](C(=O)NCC(N)=O)CSCC(=O)N[C@@H](Cc2ccccc2)C(=O)N(C)[C@@H](C)C(=O)N[C@@H](CC(N)=O)C(=O)N2CCC[C@H]2C(=O)N[C@@H](Cc2c[nH]cn2)C(=O)N[C@@H](CC(C)C)C(=O)N(C)CC(=O)N[C@@H](Cc2c[nH]c3ccccc23)C(=O)N[C@@H](CO)C(=O)N[C@@H](Cc2c[nH]c3ccccc23)C(=O)N[C@@H](Cc2ccccc2)C(=O)N1C
notes: as for B1
B10: Compound No. 67 (peptide)
peptide: FANPHLGWSWFXRCG
HELM: PEPTIDE1{[O=C(C[*:3])[*:2]].F.[meA].N.P.H.L.[Sar].W.S.W.[meF].[CCCC[C@@H](C(=O)[*:2])N(C)[*:1]].R.C.G.[am]}$PEPTIDE1,PEPTIDE1,1:R3-15:R3$$$V2.0
SMILES: CCCC[C@H]1C(=O)N[C@@H](CCCNC(=N)N)C(=O)N[C@H](C(=O)NCC(N)=O)CSCC(=O)N[C@@H](Cc2ccccc2)C(=O)N(C)[C@@H](C)C(=O)N[C@@H](CC(N)=O)C(=O)N2CCC[C@H]2C(=O)N[C@@H](Cc2c[nH]cn2)C(=O)N[C@@H](CC(C)C)C(=O)N(C)CC(=O)N[C@@H](Cc2c[nH]c3ccccc23)C(=O)N[C@@H](CO)C(=O)N[C@@H](Cc2c[nH]c3ccccc23)C(=O)N(C)[C@@H](Cc2ccccc2)C(=O)N1C
notes: as for B1
B11: Compound No. 64 (peptide)
peptide: {CH2CO}-F[NMeA]NPHL[Sar]WS[Bta][NMeNle][NMeNle]RCG-NH2
modifications: thioether N-14
SMILES: CCCC[C@H]1C(=O)N(C)[C@@H](CCCC)C(=O)N[C@@H](CCCNC(=N)N)C(=O)N[C@H](C(=O)NCC(N)=O)CSCC(=O)N[C@@H](Cc2ccccc2)C(=O)N(C)[C@@H](C)C(=O)N[C@@H](CC(N)=O)C(=O)N2CCC[C@H]2C(=O)N[C@@H](Cc2c[nH]cn2)C(=O)N[C@@H](CC(C)C)C(=O)N(C)CC(=O)N[C@@H](Cc2c[nH]c3ccccc23)C(=O)N[C@@H](CO)C(=O)N[C@@H](Cc2csc3ccccc23)C(=O)N1C
notes: as for B1
B12: Compound No. 68 (peptide)
peptide: FANPHLGWSWSXRCG
HELM: PEPTIDE1{[O=C(C[*:3])[*:2]].F.[meA].N.P.H.L.[Sar].W.S.W.S.[CCCC[C@@H](C(=O)[*:2])N(C)[*:1]].R.C.G.[am]}$PEPTIDE1,PEPTIDE1,1:R3-15:R3$$$V2.0
SMILES: CCCC[C@H]1C(=O)N[C@@H](CCCNC(=N)N)C(=O)N[C@H](C(=O)NCC(N)=O)CSCC(=O)N[C@@H](Cc2ccccc2)C(=O)N(C)[C@@H](C)C(=O)N[C@@H](CC(N)=O)C(=O)N2CCC[C@H]2C(=O)N[C@@H](Cc2c[nH]cn2)C(=O)N[C@@H](CC(C)C)C(=O)N(C)CC(=O)N[C@@H](Cc2c[nH]c3ccccc23)C(=O)N[C@@H](CO)C(=O)N[C@@H](Cc2c[nH]c3ccccc23)C(=O)N[C@@H](CO)C(=O)N1C
notes: as for B1
B13: Compound No. 71 (peptide)
peptide: FFXGDVFYGWYLCG
HELM: PEPTIDE1{[O=C(C[*:3])[*:2]].F.[meF].[CCCC[C@@H](C(=O)[*:2])N(C)[*:1]].[Sar].D.V.[meF].Y.[Sar].W.Y.L.C.G.[am]}$PEPTIDE1,PEPTIDE1,1:R3-14:R3$$$V2.0
SMILES: CCCC[C@H]1C(=O)N(C)CC(=O)N[C@@H](CC(=O)O)C(=O)N[C@@H](C(C)C)C(=O)N(C)[C@@H](Cc2ccccc2)C(=O)N[C@@H](Cc2ccc(O)cc2)C(=O)N(C)CC(=O)N[C@@H](Cc2c[nH]c3ccccc23)C(=O)N[C@@H](Cc2ccc(O)cc2)C(=O)N[C@@H](CC(C)C)C(=O)N[C@H](C(=O)NCC(N)=O)CSCC(=O)N[C@@H](Cc2ccccc2)C(=O)N(C)[C@@H](Cc2ccccc2)C(=O)N1C
notes: macrocyclic peptide cyclized via the ClAc moiety with the downstream cysteine; parent of the Formula II series

Positions of bridges follow the written chain, without caps; N, C: chain ends. Non-standard residues stand in square brackets, D forms with d. Bta = N[C@@H](Cc1csc2ccccc12)C(=O)O; NMeNle = CCCC[C@H](NC)C(=O)O; NMeS = CN[C@@H](CO)C(=O)O; NMeA = CN[C@@H](C)C(=O)O; Sar = CNCC(=O)O

As usually defined, the IC50 is the concentration that gives 50% inhibition.

The first experiment deals with T1, hPDL1(19-239)-TVMV-His (human, UniProt Q9NZQ7 19-239).
T1 construct: The construct name says 19-239, the running text says amino acids 18-239; Expressed in HEK293T cells; also called PD-L1-His; PD-L1-TVMV-His
T1 sequence (Q9NZQ7 other isoform, or with tags, fused parts or gaps limits assumed): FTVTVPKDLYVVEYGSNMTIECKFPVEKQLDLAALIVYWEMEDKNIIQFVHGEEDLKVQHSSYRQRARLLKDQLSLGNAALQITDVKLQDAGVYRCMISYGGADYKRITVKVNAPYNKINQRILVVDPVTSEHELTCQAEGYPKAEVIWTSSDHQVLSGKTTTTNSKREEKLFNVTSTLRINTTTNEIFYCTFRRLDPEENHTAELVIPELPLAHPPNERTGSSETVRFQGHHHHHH
Kind of experiment: HTRF competition, PD-1-Ig (20 nM) binding to human PD-L1-His (10 nM). The method, then:
(§1) All binding studies were performed in an HTRF assay buffer consisting of dPBS supplemented with 0.1% (w/v) bovine serum albumin and 0.05% (v/v) Tween-20. […] PD-L1 fusion proteins from either human, cynomologous macaques, or mouse were used. HTRF detection was achieved using europium crypate-labeled anti-Ig monoclonal antibody (1 nM final) and allophycocyanin (APC) labeled anti-His monoclonal antibody (20 nM final). Antibodies were diluted in HTRF detection buffer and 5 μl was dispensed on top of binding reaction. The reaction was allowed to equilibrate for 30 minutes and signal (665 nm/620 nm ratio) was obtained using an EnVision fluorometer. […]
HTRF Experiments were performed essentially as outlined supra. Variant macrocyclic peptides were created as outlined herein.
In turn, B1 returned an IC50 of 24 nM.
Same read-out and setting: the value for B2 was 43 nM; that for B3 was 13 nM; that for B4 was 475 nM.
On the same count and under the same terms, the value for B5 was 31 nM; that for B6 was 3660 nM; that for B7 was 144 nM.
For the molecule B8, the IC50 came out at 43 nM. Against the preceding molecule, the IC50 is about 3.3-fold lower.
B9 returned an IC50 of 77 nM.
On the same count and under the same terms, the value for B10 was 108 nM; that for B11 was 7 nM.
On the same count and under the same terms, as for B12, the figure is 2060 nM.

The target in the next experiment is T1, hPDL1(19-239)-TVMV-His. The description is as above. This is another data set of the same source. The procedure: as §1
HTRF experiments were performed essentially as outlined supra. Variant macrocyclic peptides were created as outlined herein.
Take B13: the IC50 stood at 7 nM.
